# Laboratory results: PMC10994351
# Columns and labels:
# [1] = target: wild-type myristoylated Arf1 (WT myrArf1) (human) (UniProt P84077)
# [2] = target: [F13A]myrArf1 (human) (UniProt P84077)
# [3] = target: [L8K]myrArf1 (human) (UniProt P84077)
# [4] = target: [L8A]myrArf1 (human) (UniProt P84077)
# [5] = target: [L8A/F13A]myrArf1 (human) (UniProt P84077)
substance,measurement,setting,value
"full-length AGAP1, His-tagged (from UniProt Q9UPQ3 1-857) (enzyme)","C50 (nM) of the GAP assay: full-length AGAP1 needed for 50% of maximum hydrolysis of [alpha-32P]GTP bound to myrArf1, LUVs with PIP2, 30°C, 3 min",[1],1.6 nM
same,"C50 (nM) of the GAP assay: full-length AGAP1 needed for 50% of maximum hydrolysis of [alpha-32P]GTP bound to myrArf1, LUVs with PIP2, 30°C, 3 min",[2],340 nM
"tandem PH domains, Arf GAP, and ankyrin repeats of ARAP1 (PPZA construct), His-tagged (domain or fragment)","C50 (nM) of the GAP assay: ARAP1 PPZA needed for 50% of maximum hydrolysis of [alpha-32P]GTP bound to myrArf1, LUVs with PIP3, 30°C, 3 min",[1],0.14 nM
same,"C50 (nM) of the GAP assay: ARAP1 PPZA needed for 50% of maximum hydrolysis of [alpha-32P]GTP bound to myrArf1, LUVs with PIP3, 30°C, 3 min",[2],210 nM
"PH, Arf GAP, and ankyrin repeats (PZA construct) of ASAP1, His-tagged (domain or fragment)","C50 (nM) of the GAP assay: ASAP1 PZA needed for 50% of maximum hydrolysis of [alpha-32P]GTP bound to myrArf1, LUVs with PIP2, 30°C, 3 min",[3],0.84 nM
same,"C50 (nM) of the GAP assay: ASAP1 PZA needed for 50% of maximum hydrolysis of [alpha-32P]GTP bound to myrArf1, LUVs with PIP2, 30°C, 3 min",[4],0.84 nM
same,"C50 (nM) of the GAP assay: ASAP1 PZA needed for 50% of maximum hydrolysis of [alpha-32P]GTP bound to myrArf1, LUVs with PIP2, 30°C, 3 min",[5],0.7 nM
same,"C50 (nM) of the GAP assay: ASAP1 PZA needed for 50% of maximum hydrolysis of [alpha-32P]GTP bound to myrArf1, LUVs with PIP2, 30°C, 3 min",[1],0.79 nM
same,"C50 (nM) of the GAP assay: ASAP1 PZA needed for 50% of maximum hydrolysis of [alpha-32P]GTP bound to myrArf1, LUVs with PIP2, 30°C, 3 min",[2],2100 nM
